For one data set, the target named is T1, AtPIF3-bHLH R356A (Arabidopsis thaliana, UniProt O80536 340-397, R356A).
T1 sequence: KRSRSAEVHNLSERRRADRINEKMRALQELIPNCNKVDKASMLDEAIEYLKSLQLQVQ
Put plainly: ITC; error exceeds value; ITC: 30 mM HEPES, 125 mM NaCl, pH 7.5, 25 C, 400 uM protein into 40 uM DNA; fEMSA: 30 mM HEPES, 500 mM NaCl, pH 7.4, on ice 30 min, 3 uM probe, 10% native gel in 0.5x TBE at 4 C. As to conditions: protein: recombinant; tags: C-terminal His6; chain copies: 2; blunt.

For the next data set, the target named is T2, AtPIF3-bHLH H348A (Arabidopsis thaliana, UniProt O80536 340-397, H348A).
T2 sequence: T1 sequence with H9A, A17R
Put plainly: ITC; binding curve unsaturated; ITC: 30 mM HEPES, 125 mM NaCl, pH 7.5, 25 C, 400 uM protein into 40 uM DNA; fEMSA: 30 mM HEPES, 500 mM NaCl, pH 7.4, on ice 30 min, 3 uM probe, 10% native gel in 0.5x TBE at 4 C. As to conditions: protein: recombinant; tags: C-terminal His6; chain copies: 2; blunt.

Positions count from the first letter of the chain named.

B1: G-box (PER2), ITC (dsDNA)
DNA 1: AGGAACACGTGACCC
DNA 2: GGGTCACGTGTTCCT
On to B1, for which the Kd with AtPIF3-bHLH R356A is 106 ± 112 µM; in the data set with AtPIF3-bHLH H348A, 3.39 ± 0.275 µM.

Source of the values: paper PMC11552376, “Specific binding between Arabidopsis thaliana phytochrome-interacting factor 3 (AtPIF3) bHLH and G-box originated prior to embryophyte emergence” (BMC Plant Biology, 2024).
